Target: T1, 19-residue peptide comprising amino acids 788-806 of human HIF-1α, Q16665
T1 chain: DESGLPQLTSYDCEVNAPI

B1: FIH (Factor Inhibiting HIF), human (protein)
chain: MAATAAEAVASGSGEPREEAGALGPAWDESQLRSYSFPTRPIPRLSQSDPRAEELIENEEPVVLTDTNLVYPALKWDLEYLQENIGNGDFSVYSASTHKFLYYDEKKMANFQNFKPRSNREEMKFHEFVEKLQDIQQRGGEERLYLQQTLNDTVGRKIVMDFLGFNWNWINKQQGKRGWGQLTSNLLLIGMEGNVTPAHYDEQQNFFAQIKGYKRCILFPPDQFECLYPYPVHHPCDRQSQVDFDNPDYERFPNFQNVVGYETVVGPGDVLYIPMYWWHHIESLLNGGITITVNFWYKGAPTPKRIEYPLKAHQKVAIMRNIEKMLGEALGNPQEVGPLLNTMIKGRYN
  hydroxylation of the peptide (mass spectrometry of HPLC purified material): a mass difference of +8Da of the doubly charged ions, corresponding to +16Da in the peptide (oxygen)

Reference: patent US7778779
